Test results as given in IntAct's records for PubMed 21771788.

B1: Mitogen-activated protein kinase kinase kinase 5 (Homo sapiens), Q99683 (parent)
chain: MSTEADEGITFSVPPFAPSGFCTIPEGGICRRGGAAAVGEGEEHQLPPPPPGSFWNVESAAAPGIGCPAATSSSSATRGRGSSVGGGSRRTTVAYVINEASQGQLVVAESEALQSLREACETVGATLETLHFGKLDFGETTVLDRFYNADIAVVEMSDAFRQPSLFYHLGVRESFSMANNIILYCDTNSDSLQSLKEIICQKNTMCTGNYTFVPYMITPHNKVYCCDSSFMKGLTELMQPNFELLLGPICLPLVDRFIQLLKVAQASSSQYFRESILNDIRKARNLYTGKELAAELARIRQRVDNIEVLTADIVINLLLSYRDIQDYDSIVKLVETLEKLPTFDLASHHHVKFHYAFALNRRNLPGDRAKALDIMIPMVQSEGQVASDMYCLVGRIYKDMFLDSNFTDTESRDHGASWFKKAFESEPTLQSGINYAVLLLAAGHQFESSFELRKVGVKLSSLLGKKGNLEKLQSYWEVGFFLGASVLANDHMRVIQASEKLFKLKTPAWYLKSIVETILIYKHFVKLTTEQPVAKQELVDFWMDFLVEATKTDVTVVRFPVLILEPTKIYQPSYLSINNEVEEKTISIWHVLPDDKKGIHEWNFSASSVRGVSISKFEERCCFLYVLHNSDDFQIYFCTELHCKKFFEMVNTITEEKGRSTEEGDCESDLLEYDYEYDENGDRVVLGKGTYGIVYAGRDLSNQVRIAIKEIPERDSRYSQPLHEEIALHKHLKHKNIVQYLGSFSENGFIKIFMEQVPGGSLSALLRSKWGPLKDNEQTIGFYTKQILEGLKYLHDNQIVHRDIKGDNVLINTYSGVLKISDFGTSKRLAGINPCTETFTGTLQYMAPEIIDKGPRGYGKAADIWSLGCTIIEMATGKPPFYELGEPQAAMFKVGMFKVHPEIPESMSAEAKAFILKCFEPDPDKRACANDLLVDEFLKVSSKKKKTQPKLSALSAGSNEYLRSISLPVPVLVEDTSSSSEYGSVSPDTELKVDPFSFKTRAKSCGERDVKGIRTLFLGIPDENFEDHSAPPSPEEKDSGFFMLRKDSERRATLHRILTEDQDKIVRNLMESLAQGAEEPKLKWEHITTLIASLREFVRSTDRKIIATTLSKLKLELDFDSHGISQVQVVLFGFQDAVNKVLRNHNIKPHWMFALDSIIRKAVQTAITILVPELRPHFSLASESDTADQEDLDVEDDHEEQPSNQTVRRPQAVIEDAVATSGVSTLSSTVSHDSQSAHRSLNVQLGRMKIETNRLLEELVRKEKELQALLHRAIEEKDQEIKHLKLKSQPIEIPELPVFHLNSSGTNTEDSELTDWLRVNGADEDTISRFLAEDYTLLDVLYYVTRDDLKCLRLRGGMLCTLWKAIIDFRNKQT
partner: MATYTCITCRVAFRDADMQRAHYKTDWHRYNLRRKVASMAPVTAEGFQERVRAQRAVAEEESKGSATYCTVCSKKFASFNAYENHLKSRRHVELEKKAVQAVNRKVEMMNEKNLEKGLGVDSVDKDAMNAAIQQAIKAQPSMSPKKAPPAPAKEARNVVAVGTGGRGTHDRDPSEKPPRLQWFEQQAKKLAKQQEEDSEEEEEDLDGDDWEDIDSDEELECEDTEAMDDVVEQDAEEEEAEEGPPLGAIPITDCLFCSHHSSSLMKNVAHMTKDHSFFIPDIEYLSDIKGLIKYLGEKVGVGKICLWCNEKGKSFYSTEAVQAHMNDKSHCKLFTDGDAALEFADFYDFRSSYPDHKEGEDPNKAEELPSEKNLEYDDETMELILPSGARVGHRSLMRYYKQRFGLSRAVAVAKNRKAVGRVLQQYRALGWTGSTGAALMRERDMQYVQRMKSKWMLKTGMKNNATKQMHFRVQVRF
B2: Cytoplasmic 60S subunit biogenesis factor ZNF622 (Homo sapiens), Q969S3 (parent)
chain: B1 partner

Variants of: B1
Conditions: with zn622_human ZNF622, Q969S3

effect of a mutation on the interaction	Variant
disrupting interaction	C1351S;C1360S
decreasing interaction	C1360S
decreasing interaction	C1351S

Variants of: B1
Conditions: with zn622_human ZNF622, Q969S3
Remark: another data set of the same source

effect of a mutation on the interaction	Variant
disrupting interaction	C1351S;C1360S

Variants of: B2
Conditions: with m3k5_human MAP3K5, Q99683

effect of a mutation on the interaction	Variant
decreasing interaction	MATYTCITCRVAFRDADMQRAHYKTDWHRYNLRRKVASMAPVTAEGFQERVRAQRAVAEEESKGSATYCTVCSKKFASFNAYENHLKSRRHVELEKKAVQAVNRKVEMMNEKNLEKGLGVDSVDKDAMNAAIQQAIKAQPSMSPKKAPPAPAKEARNVVAVGTGGRGTHDRDPSEKPPRLQWFEQQAKKLAKQQEEDSEEEEEDLDGDDWEDIDSDEELECEDTEAMDDVVEQDAEEEEAEEGPPLGAIPITDCLFCSHHSSSLMKNVAHMTKDHSFFIPDIEYLSDIKGLIKYLGEKVGVGKISLWCNEKGKSFYSTEAVQAHMNDKSHCKLFTDGDAALEFADFYDFRSSYPDHKEGEDPNKAEELPSEKNLEYDDETMELILPSGARVGHRSLMRYYKQRFGLSRAVAVAKNRKAVGRVLQQYRALGWTGSTGAALMRERDMQYVQRMKSKWMLKTGMKNNATKQMHFRVQVRF [C305S]
disrupting interaction	MATYTCITCRVAFRDADMQRAHYKTDWHRYNLRRKVASMAPVTAEGFQERVRAQRAVAEEESKGSATYCTVCSKKFASFNAYENHLKSRRHVELEKKAVQAVNRKVEMMNEKNLEKGLGVDSVDKDAMNAAIQQAIKAQPSMSPKKAPPAPAKEARNVVAVGTGGRGTHDRDPSEKPPRLQWFEQQAKKLAKQQEEDSEEEEEDLDGDDWEDIDSDEELECEDTEAMDDVVEQDAEEEEAEEGPPLGAIPITDCLFCSHHSSSLMKNVAHMTKDHSFFIPDIEYLSDIKGLIKYLGEKVGVGKISLWSNEKGKSFYSTEAVQAHMNDKSHCKLFTDGDAALEFADFYDFRSSYPDHKEGEDPNKAEELPSEKNLEYDDETMELILPSGARVGHRSLMRYYKQRFGLSRAVAVAKNRKAVGRVLQQYRALGWTGSTGAALMRERDMQYVQRMKSKWMLKTGMKNNATKQMHFRVQVRF [C305S;C308S]
decreasing interaction	MATYTCITCRVAFRDADMQRAHYKTDWHRYNLRRKVASMAPVTAEGFQERVRAQRAVAEEESKGSATYCTVCSKKFASFNAYENHLKSRRHVELEKKAVQAVNRKVEMMNEKNLEKGLGVDSVDKDAMNAAIQQAIKAQPSMSPKKAPPAPAKEARNVVAVGTGGRGTHDRDPSEKPPRLQWFEQQAKKLAKQQEEDSEEEEEDLDGDDWEDIDSDEELECEDTEAMDDVVEQDAEEEEAEEGPPLGAIPITDCLFCSHHSSSLMKNVAHMTKDHSFFIPDIEYLSDIKGLIKYLGEKVGVGKICLWSNEKGKSFYSTEAVQAHMNDKSHCKLFTDGDAALEFADFYDFRSSYPDHKEGEDPNKAEELPSEKNLEYDDETMELILPSGARVGHRSLMRYYKQRFGLSRAVAVAKNRKAVGRVLQQYRALGWTGSTGAALMRERDMQYVQRMKSKWMLKTGMKNNATKQMHFRVQVRF [C308S]
